Experimental data as given in US20230049752A1 (University of California, published 2023).
Changes are numbered by the printed parent chain.

T1: mouse Claudin-6 (CLDN6) (mouse, UniProt Q9Z262 1-219)
T1 construct: whole, on cells; GFP fusion on engineered HEK293T cells; also called Mouse CLDN6; murine CLDN6
T1 sequence (looked up): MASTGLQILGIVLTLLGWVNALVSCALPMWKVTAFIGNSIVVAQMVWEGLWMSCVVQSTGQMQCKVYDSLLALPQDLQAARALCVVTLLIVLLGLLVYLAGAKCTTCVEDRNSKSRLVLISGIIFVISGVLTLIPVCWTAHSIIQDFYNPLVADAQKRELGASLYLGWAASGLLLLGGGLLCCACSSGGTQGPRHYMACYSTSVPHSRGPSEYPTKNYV

B1: AB1-11 (antibody, V domains shown)
VH: QVQLVQSGAEVKKPGASVKMSCKASGYTFTTYTMHWVRQAPGQGLEWIGFINPSSGYTDYAQKFQGRVTLTADKSTSTVYMELSSLRSEDTAVYYCANGDYYVAYWGQGTLVTVSS
VL: DIQLTQSPSSLSASVGDRVTMTCTASSSVSSTYFHWYQQKPGKAPKLWIYSTSNLASGVPSRFSGSGSGTDYTLTISSMQPEDAATYYCHQYHRSPLTFGQGTKLEIK
notes: humanized; also called humanized AB1-11; HU-11
B2: AB S3 (antibody, V domains shown)
VH: EVQLLESGGGLVQPGGSMRLSCAASGFTFSNYWMNWVRQAPGKGLEWIAQIRLKSDNYVTHYTDSVKGRFTISRDDSKRTVYLQMNSLRAEDTGIYYCSDGPPSGSWGQGTLLTVSS
VL: DIQMTQSPSSLSASVGDRVTITCRISENIYSYLAWYQQKPGKAPKLLVYNAKILVEGVPSRFSGSGSGTDFTLTISSLQPEDFGTYYCQHHYTVPWTFGQGTKLEIK
B3: AB1-7 (antibody, V domains shown)
VH: B1 VH with K74T
VL: B1 VL with W48L
notes: humanized
B4: AB1-3 (antibody, V domains shown)
VH: B1 VH with M20V, I48M, L70M, K74T
VL: B1 VL with L4M, M21I, W48L, M79L, A84F
notes: humanized
B5: AB1-4 (antibody, V domains shown)
VH: B1 VH with M20V, I48M, L70M, K74T
VL: B1 VL with W48L
notes: humanized
B6: AB18-chim (antibody, V domains shown)
VH: QVQLKQSGPELEKPGASVKISCKASGYSFTGYNMNWVKQSNGKSLEWIGNIDPYYGGSTYNQKFTGKATLTVDKSSSTAYMQLKSLTSEDSAVYYCARERSGYVFSAMDYWGQGTSVTVSS
VL: NIMMTQSPSSLAVSAGEKVTMSCKSSQSVLFSSNQKNYLAWYQQKPGQSPRLLIYWASTRESGVPDRFTGSGSGTDFTLTISNVQAEDLAVYYCHQYLSSRTFGAGTKLELK
B7: AB18-4 (antibody, V domains shown)
VH: QVQLVQSGAEVKKPGASVKVSCKASGYSFTGYNMNWVRQAPGQGLEWMGNIDPYYGGSTYAQKFQGRVTMTVDTSTSTVYMELSSLRSEDTAVYYCARERSGYVFSAMDYWGQGTLVTVSS
VL: DIVMTQSPDSLAVSLGERVTMNCKSSQSVLFSSNQKNYLAWYQQKPGQPPKLLIYWASTRESGVPDRFSGSGSGTDFTLTISSVQAEDVAVYYCHQYLSSRTFGQGTKLEIK
B8: AB18-6 (antibody, V domains shown)
VH: B7 VH with V20I, M48I, V68A, M70L, V79A
VL: B7 VL
B9: AB9-chim (antibody, V domains shown)
VH: EVQLQQSGPELVKPGASVKMSCKASGYRFTDYNMHWVKQSHGKSLEWIGYINPNNGGTNYNQNFKGKATLTVNKSSSTAYMELRSLTSEDSAAYYCARDYLYFFDCWGQGTTLTVSS
VL: DIQMTQSPASQSASLGESVTITCLASQTIGTWLAWYQQKPGKSPQLLIYAAASLADGVPSRFSGSGSGTRFSFKISSLQAEDFVSYYCQQLYSIPRTFGGGTKLEIK
B10: AB9-3 (antibody, V domains shown)
VH: QVQLVQSGAEVKKPGASVKMSCKASGYRFTDYNMHWVRQAPGQGLEWIGYINPNNGGTNYAQKFQGRATLTVDTSTSTAYMELSSLRSEDTAVYYCARDYLYFFDCWGQGTLLTVSS
VL: DIQMTQSPSSLSASVGDRVTITCLASQTIGTWLAWYQQKPGKAPKLLIYAAASLADGVPSRFSGSGSGTDFTFTISSLQPEDFVTYYCQQLYSIPRTFGQGTKLEIK
B11: AB4-6 (antibody, V domains shown)
VH: QVQLVQSGAEVKKPGASVKMSCKASGYTFTSYTMHWIRQAPGQGLEWIGYINPSSTYTHYAQKFQGRATLTADKSTSTAYMELSSLRSEDTAVYYCSRGELGGFAYWGQGTLVTVSS
VL: DVVMTQSPLSLPVTLGQPASISCRSSQSLVHSDGNTYLNWYQQRPGQSPRLLIYKVSNRFSGVPDRFSGSGSGTDFTLKISRVEAEDVGVYYCSQSTHVPYTFGQGTKLEIK
notes: humanized
B12: AB4-7 (antibody, V domains shown)
VH: B11 VH with L45Q
VL: B11 VL
notes: humanized
B13: AB4-8 (antibody, V domains shown)
VH: QVQLVQSGAEVKKPGASVKVSCKASGYTFTSYTMHWVRQAPGQGLEWMGYINPSSTYTHYIKKFKDRVTMTADTSTSTVYMELSSLRSEDTAVYYCSRGELGGFAYWGQGTLVTVSS
VL: B11 VL
notes: humanized
B14: AB4-9 (antibody, V domains shown)
VH: B11 VH with A61I, Q62K, Q65K, G66D, K74T
VL: B11 VL
notes: humanized
B15: AB4-10 (antibody, V domains shown)
VH: B11 VH with L45Q, A61I, Q62K, Q65K, G66D, K74T
VL: B11 VL
notes: humanized
B16: AB4-11 (antibody, V domains shown)
VH: B11 VH with A61I, Q62K, Q65K, G66D
VL: B11 VL
notes: humanized
B17: AB4-12 (antibody, V domains shown)
VH: B11 VH with L45Q, A61I, Q62K, Q65K, G66D
VL: B11 VL
notes: humanized

target: human Claudin-6 (CLDN6) (human) (UniProt P56747); assay: FACS, limiting dilution, ARK2 cells

Binder	FACS signal at 0.32 nM	FACS signal at 1.6 nM	FACS signal at 8 nM	FACS signal at 40 nM	FACS signal at 200 nM	FACS signal at 1000 nM
B1	377	639	2290	3460	16400	50500
B2	372	933	4830	24600	83600	

target: human Claudin-6 (CLDN6) (human) (UniProt P56747); assay: FACS, 1.5 ug Ab, OVCA429 cells (2nd Ab only 885.77)

Binder	FACS fluorescence
B3	44700
B4	27500
B5	34600
B6	25500
B7	3220
B8	6750
B9	3570
B10	1260

target: human Claudin-6 (CLDN6) (human) (UniProt P56747); assay: FACS, 0.3 ug Ab, ARK2 cells (2nd Ab only 1351.21)

Binder	FACS fluorescence
B3	4440
B4	2830
B5	3640
B1	53900
B11	3300
B12	2770
B13	3120
B14	3060
B15	7210
B16	6390
B17	9690
B6	3440
B7	1130
B8	1390
B9	3510
B10	1140

target: human Claudin-6 (CLDN6) (human) (UniProt P56747); assay: FACS, 1.5 ug Ab, ARK2 cells (2nd Ab only 1351.21)

Binder	FACS fluorescence
B3	11200
B4	10800
B5	10000
B1	97700
B11	9840
B12	7560
B13	7310
B14	7790
B15	20200
B16	9170
B17	24200
B6	9150
B7	1380
B8	1940
B9	4490
B10	1470

target: human Claudin-6 (CLDN6) (human) (UniProt P56747); assay: FACS, limiting dilution, UMUC4 cells

Binder	FACS signal at 0.32 nM	FACS signal at 1.6 nM	FACS signal at 8 nM	FACS signal at 40 nM	FACS signal at 200 nM	FACS signal at 1000 nM
B1	618	839	1610	4160	25700	
B2	533	647	1980	7780	20800	45300

target: human Claudin-6 (CLDN6) (human) (UniProt P56747); assay: FACS, limiting dilution, OV90 cells

Binder	FACS signal at 0.32 nM	FACS signal at 1.6 nM	FACS signal at 8 nM	FACS signal at 40 nM	FACS signal at 200 nM	FACS signal at 1000 nM
B1	452	753	2150	7820	32500	72100
B2	482	1040	4470	19500	63100	

target: human Claudin-6 (CLDN6) (human) (UniProt P56747); assay: FACS, 0.3 ug Ab, 293T clone expressing human CLDN6 (2nd Ab only 768.07)

Binder	FACS fluorescence
B3	79200
B4	142000
B5	102000
B1	64900
B11	10800
B12	19200
B13	49300
B14	37200
B15	50800
B16	37800
B17	71100
B6	73800
B7	32400
B8	26900
B9	46700
B10	9500

target: human Claudin-6 (CLDN6) (human) (UniProt P56747); assay: FACS, 1.5 ug Ab, 293T clone expressing human CLDN6 (2nd Ab only 768.07)

Binder	FACS fluorescence
B3	207000
B4	142000
B5	197000
B1	113000
B11	29200
B12	33300
B13	77600
B14	56900
B15	77200
B16	61200
B17	86200
B6	135000
B7	54400
B8	58500
B9	72000
B10	24600

target: T1, mouse Claudin-6 (CLDN6); assay: FACS, 293T clone expressing mouse CLDN6, dose not stated (2nd Ab only 1061.72)
Method: Two doses (1.5 μg or 0.3 μg) of the humanized antibodies were tested for binding to either human CLDN6 or murine CLDN6 which proteins were expressed by engineered 293T clones.

Binder	FACS fluorescence
B3	99700
B4	89300
B5	75900
B1	101000
B11	14200
B12	6640
B13	4700
B14	1780
B15	2650
B16	1230
B17	1130
